Residue numbers refer to the chain shown, from its start. Names may count otherwise.

B1: feline IgG1a S428M (antibody, part only; not given: Variable domains, not shown: another chain or arm of the molecule)
constant: ASTTAPSVFPLAPSCGTTSGATVALACLVLGYFPEPVTVSWNSGALTSGVHTFPAVLQASGLYSLSSMVTVPSSRWLSDTFTCNVAHPPSNTKVDKTVRKTDHPPGPKPCDCPKCPPPEMLGGPSIFIFPPKPKDTLSISRTPEVTCLVVDLGPDDSDVQITWFVDNTQVYTAKTSPREEQFNSTYRVVSVLPILHQDWLKGKEFKCKVNSKSLPSPIERTISKAKGQPHEPQVYVLPPAQEELSRNKVSVTCLIKSFHPPDIAVEWEITGQPEPENNYRTTPPQLDSDGTYFVYSKLSVDRSHWQRGNTYTCSVMHEALHSHHTQKSLTQSPGK
B2: feline IgG1a S434E (antibody, part only; not given: Variable domains, not shown: another chain or arm of the molecule)
constant: B1 constant with M316S, S322E
B3: feline IgG1a E430Q (antibody, part only; not given: Variable domains, not shown: another chain or arm of the molecule)
constant: B1 constant with M316S, E318Q
B4: feline IgG1a S254T (antibody, part only; not given: Variable domains, not shown: another chain or arm of the molecule)
constant: B1 constant with S140T, M316S
B5: feline IgG1a S254R (antibody, part only; not given: Variable domains, not shown: another chain or arm of the molecule)
constant: B1 constant with S140R, M316S
B6: feline IgG1a D401R (antibody, part only; not given: Variable domains, not shown: another chain or arm of the molecule)
constant: B1 constant with D289R, M316S
B7: feline IgG1a T256A (antibody, part only; not given: Variable domains, not shown: another chain or arm of the molecule)
constant: B1 constant with T142A, M316S
B8: feline IgG1a S252Y/S434F (antibody, part only; not given: Variable domains, not shown: another chain or arm of the molecule)
constant: B1 constant with S138Y, M316S, S322F
B9: feline IgG1a T256K (antibody, part only; not given: Variable domains, not shown: another chain or arm of the molecule)
constant: B1 constant with T142K, M316S
B10: feline IgG1a H436K (antibody, part only; not given: Variable domains, not shown: another chain or arm of the molecule)
constant: B1 constant with M316S, H324K
B11: feline IgG1a S252Y/S434F/Q311W (antibody, part only; not given: Variable domains, not shown: another chain or arm of the molecule)
constant: B1 constant with S138Y, Q197W, M316S, S322F
B12: feline IgG1a S252Y/Q311W/S434Y (antibody, part only; not given: Variable domains, not shown: another chain or arm of the molecule)
constant: B1 constant with S138Y, Q197W, M316S, S322Y
B13: feline IgG1a T256V (antibody, part only; not given: Variable domains, not shown: another chain or arm of the molecule)
constant: B1 constant with T142V, M316S
B14: feline IgG1a H436G (antibody, part only; not given: Variable domains, not shown: another chain or arm of the molecule)
constant: B1 constant with M316S, H324G
B15: feline IgG1a D312H (antibody, part only; not given: Variable domains, not shown: another chain or arm of the molecule; small tags and cut ends)
constant: B1 constant with D198H, M316S
B16: feline IgG1a E430I (antibody, part only; not given: Variable domains, not shown: another chain or arm of the molecule)
constant: B1 constant with M316S, E318I
B17: feline IgG1a T256R (antibody, part only; not given: Variable domains, not shown: another chain or arm of the molecule)
constant: B1 constant with T142R, M316S
B18: feline IgG1a T256M (antibody, part only; not given: Variable domains, not shown: another chain or arm of the molecule)
constant: B1 constant with T142M, M316S
B19: feline IgG1a A431R (antibody, part only; not given: Variable domains, not shown: another chain or arm of the molecule)
constant: B1 constant with M316S, A319R
B20: feline IgG1a T256S (antibody, part only; not given: Variable domains, not shown: another chain or arm of the molecule)
constant: B1 constant with T142S, M316S
B21: feline IgG1a T256L (antibody, part only; not given: Variable domains, not shown: another chain or arm of the molecule)
constant: B1 constant with T142L, M316S
B22: feline IgG1a A431V (antibody, part only; not given: Variable domains, not shown: another chain or arm of the molecule)
constant: B1 constant with M316S, A319V
B23: feline IgG1a S434D (antibody, part only; not given: Variable domains, not shown: another chain or arm of the molecule)
constant: B1 constant with M316S, S322D
B24: feline IgG1a D399T (antibody, part only; not given: Variable domains, not shown: another chain or arm of the molecule)
constant: B1 constant with D287T, M316S
B25: feline IgG1a T256Q (antibody, part only; not given: Variable domains, not shown: another chain or arm of the molecule)
constant: B1 constant with T142Q, M316S
B26: feline IgG1a T256N (antibody, part only; not given: Variable domains, not shown: another chain or arm of the molecule)
constant: B1 constant with T142N, M316S
B27: feline IgG1a S254Y (antibody, part only; not given: Variable domains, not shown: another chain or arm of the molecule)
constant: B1 constant with S140Y, M316S
B28: feline IgG1a D249E (antibody, part only; not given: Variable domains, not shown: another chain or arm of the molecule)
constant: B1 constant with D135E, M316S
B29: feline IgG1a S434V (antibody, part only; not given: Variable domains, not shown: another chain or arm of the molecule)
constant: B1 constant with M316S, S322V
B30: feline IgG1a S434C (antibody, part only; not given: Variable domains, not shown: another chain or arm of the molecule)
constant: B1 constant with M316S, S322C
B31: feline IgG1a S254W (antibody, part only; not given: Variable domains, not shown: another chain or arm of the molecule)
constant: B1 constant with S140W, M316S
B32: feline IgG1a A431Q (antibody, part only; not given: Variable domains, not shown: another chain or arm of the molecule)
constant: B1 constant with M316S, A319Q
B33: feline IgG1a T256C (antibody, part only; not given: Variable domains, not shown: another chain or arm of the molecule)
constant: B1 constant with T142C, M316S
B34: feline IgG1a S252Y/L314K (antibody, part only; not given: Variable domains, not shown: another chain or arm of the molecule)
constant: B1 constant with S138Y, L200K, M316S
B35: feline IgG1a Q311W/D312P/L314K (antibody, part only; not given: Variable domains, not shown: another chain or arm of the molecule)
constant: B1 constant with Q197W, D198P, L200K, M316S
B36: feline IgG1a S252Y/S428Y/Q311W (antibody, part only; not given: Variable domains, not shown: another chain or arm of the molecule)
constant: B1 constant with S138Y, Q197W, M316Y
B37: feline IgG1a Q311L (antibody, part only; not given: Variable domains, not shown: another chain or arm of the molecule)
constant: B1 constant with Q197L, M316S
B38: feline IgG1a S252Y/S428Y/S434Y (antibody, part only; not given: variable domains and light chain, not shown: another chain or arm of the molecule)
constant: B1 constant with S138Y, M316Y, S322Y
B39: feline IgG1a D249A (antibody, part only; not given: Variable domains, not shown: another chain or arm of the molecule)
constant: B1 constant with D135A, M316S
B40: feline IgG1a S254N (antibody, part only; not given: Variable domains, not shown: another chain or arm of the molecule)
constant: B1 constant with S140N, M316S
B41: feline IgG1a T256G (antibody, part only; not given: variable domains and light chain, not shown: another chain or arm of the molecule)
constant: B1 constant with T142G, M316S
B42: feline IgG1a T256D (antibody, part only; not given: Variable domains, not shown: another chain or arm of the molecule)
constant: B1 constant with T142D, M316S
B43: feline IgG1a S434T (antibody, part only; not given: Variable domains, not shown: another chain or arm of the molecule)
constant: B1 constant with M316S, S322T
B44: feline IgG1a T256E (antibody, part only; not given: variable domains and light chain, not shown: another chain or arm of the molecule)
constant: B1 constant with T142E, M316S
B45: feline IgG1a S254Q (antibody, part only; not given: Variable domains, not shown: another chain or arm of the molecule)
constant: B1 constant with S140Q, M316S
B46: feline IgG1a Q311W/S434Y (antibody, part only; not given: Variable domains, not shown: another chain or arm of the molecule)
constant: B1 constant with Q197W, M316S, S322Y
B47: feline IgG1a S252Y/D312P (antibody, part only; not given: Variable domains, not shown: another chain or arm of the molecule; small tags and cut ends)
constant: B1 constant with S138Y, D198P, M316S
B48: feline IgG1a T256H (antibody, part only; not given: Variable domains, not shown: another chain or arm of the molecule)
constant: B1 constant with T142H, M316S
B49: feline IgG1a T256I (antibody, part only; not given: Variable domains, not shown: another chain or arm of the molecule)
constant: B1 constant with T142I, M316S
B50: feline IgG1a T256Y (antibody, part only; not given: Variable domains, not shown: another chain or arm of the molecule)
constant: B1 constant with T142Y, M316S
B51: feline IgG1a T256W (antibody, part only; not given: Variable domains, not shown: another chain or arm of the molecule)
constant: B1 constant with T142W, M316S
B52: feline IgG1a H436M (antibody, part only; not given: Variable domains, not shown: another chain or arm of the molecule)
constant: B1 constant with M316S, H324M
B53: feline IgG1a S434A (antibody, part only; not given: Variable domains, not shown: another chain or arm of the molecule)
constant: B1 constant with M316S, S322A
B54: feline IgG1a D249S (antibody, part only; not given: Variable domains, not shown: another chain or arm of the molecule)
constant: B1 constant with D135S, M316S
B55: feline IgG1a T256P (antibody, part only; not given: Variable domains, not shown: another chain or arm of the molecule)
constant: B1 constant with T142P, M316S
B56: feline IgG1a S252Y/S428Y (antibody, part only; not given: Variable domains, not shown: another chain or arm of the molecule)
constant: B1 constant with S138Y, M316Y
B57: feline IgG1a S252Y/S434Y (antibody, part only; not given: Variable domains, not shown: another chain or arm of the molecule)
constant: B1 constant with S138Y, M316S, S322Y

The target of this experiment is feline FcRn complex (FcRn-α subunit and β-microglobulin), biotin labeled (feline). As to the kind of experiment: SPR, pH 6. Background: In SPR one partner is held on a chip, and binding of the other changes the refractive index at the surface.
A word on the Kd: it is the free concentration of one partner at which half of the binding sites on the other are occupied at equilibrium, for simple one-to-one binding. Molecule B1 showed a Kd of 0.0218 µM.

Turning to B2, the Kd was determined as 0.00335 µM.

B3 returned a dissociation constant (Kd) of 0.00658 µM.

B4 had a Kd of 0.0161 µM.

Molecule B5 registered a Kd of 0.0215 µM.

With B6, the Kd was 0.00477 µM.

Molecule B7 gave a Kd of 0.0406 µM.

B8 showed an equilibrium dissociation constant (Kd) of 1.97 µM.

B9 displayed a Kd of 0.107 µM.

As to B10, the Kd was 0.00691 µM.

B11 came in with a Kd of 0.164 µM.

In turn, B12 yielded a Kd of 0.0972 µM.

Consider B13, for which the Kd came out at 0.0195 µM.

As to B14, the dissociation constant (Kd) amounted to 0.0109 µM.

Consider B15, for which the Kd turned out to be 0.00733 µM.

Take B16: the Kd stood at 0.00589 µM.

For the molecule B17, the Kd came to 0.0277 µM.

The molecule B18 registered a Kd of 0.0193 µM.

In the case of B19, the Kd is 0.00673 µM.

Consider B20, for which the Kd stood at 2.14 µM.

B21 registered a Kd of 0.0865 µM.

The molecule B22 gave a Kd of 0.00708 µM.

The molecule B23 registered a Kd of 0.00566 µM.

For the molecule B24, the Kd stood at 0.00675 µM.

For B25, the Kd was 0.0586 µM.

The molecule B26 showed a Kd of 0.0774 µM.

For B27, the Kd was found to be 0.0785 µM.

In turn, B28 gave a dissociation constant (Kd) of 0.00584 µM.

For the molecule B29, the Kd turned out to be 0.00371 µM.

For the molecule B30, the Kd stood at 0.0118 µM.

Regarding B31, the Kd turned out to be 0.0609 µM.

In turn, B32 registered a Kd of 0.00664 µM.

Regarding B33, the Kd is 0.154 µM.

As to B34, the Kd was 0.0109 µM.

With B35, the Kd stood at 1.23 µM.

For the molecule B36, the Kd is 0.0677 µM.

B37 gave a Kd of 0.00638 µM.

The molecule B38 returned a Kd of 0.0781 µM.

Regarding B39, the Kd amounted to 0.00541 µM.

As for B40, the Kd is 0.0257 µM.

Regarding B41, the dissociation constant (Kd) is 0.0769 µM.

As to B42, the dissociation constant (Kd) came out at 0.244 µM.

The molecule B43 returned a Kd of 0.0106 µM.

For B44, the Kd worked out at 0.0509 µM.

On to B45, for which the Kd came to 0.0247 µM.

In turn, B46 returned a Kd of 0.027 µM.

The molecule B47 returned a Kd of 0.0105 µM.

B48 had a Kd of 0.0874 µM.

Take B49: the Kd came to 0.115 µM.

Molecule B50 yielded a Kd of 0.022 µM.

The molecule B51 gave a dissociation constant Kd of 0.0252 µM.

B52 had a Kd of 0.00825 µM.

The molecule B53 gave a Kd of 0.00449 µM.

Take B54: the Kd stood at 0.00524 µM.

In turn, B55 registered a Kd of 0.0576 µM.

For B56, the Kd is 0.0172 µM.

In turn, B57 yielded a dissociation constant (Kd) of 0.116 µM.

The values above are taken from patent US20240400708A1.
